According to the supplement of paper PMC10126150:
± gives the standard deviation of the averaged measurements.

System: ATP
Test: switch fluorescence ratio, 500 uM ATP over buffer (Cy3 cluster intensity, sum of 5 cycles each) (fold (ratio)); higher = stronger signal-on switching upon ATP binding; sequences stand for … in TCGTCGGCAGCGTCAGATGTGTATAAGAGACAGTTTTTTTTTTTTTTTTTTTTTTTTT…TC
Conditions: aptamer strand: ATP DNA aptamer (quencher-CACCTGGGGGAGTATTGCGGAGGAAGG + anchor), 100 nM annealed; ATP concentration: 500 uM
Procedure, shortened: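 The quencher-labelled ATP aptamer, at 100 nM, was annealed to Cy3-labelled switching-strand clusters on a modified Illumina MiSeq flow-cell. The clusters were imaged in selection buffer, then after 15 min with 500 uM ATP at 22 °C, and this buffer/ATP cycle ran five times with NaOH stripping and re-annealing between runs. Per-cluster fluorescence ratios, summed target-cycle over summed buffer-cycle Cy3 intensity, were averaged per switch-domain sequence. Clusters outside 100-1000 RFU were excluded.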
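Note: ATP exposure 15 min at 22 °C before imaging.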

Row | Sequence | switch fluorescence ratio
1 | CGATAACATG | 0.9984 ± 0.0051
2 | CGATAACTGG | 1.05 ± 0.052
3 | CGATAATCGT | 1.002 ± 0.0098
4 | CGATAGGCAA | 1.66 ± 0.9
5 | CGATAGGGGT | 1.05 ± 0.074
6 | CGATAGGTAC | 1.22 ± 0.027
7 | CGATATAGTC | 0.993 ± 0.049
8 | CGATATTTGG | 1 ± 0.02
9 | CGATCGGTTG | 0.9499 ± 0.0033
10 | CGATCTTTAC | 1.29 ± 0.017
11 | CGATGGCTGG | 0.976 ± 0.027
12 | CGATGGGGTG | 0.998 ± 0.025
13 | CGATGGTCGT | 0.975 ± 0.028
14 | CGATGGTTTT | 1.01 ± 0.044
15 | CGATGTAGTT | 0.995 ± 0.014
16 | CGATGTATAA | 1.01 ± 0.025
17 | CGATGTCAGC | 1.073 ± 0.0036
18 | CGATGTTTTG | 0.969 ± 0.031
19 | CGATTATAGG | 1.003 ± 0.0096
20 | CGATTCGAGG | 1.03 ± 0.011
21 | CGATTGGGAC | 1.01 ± 0.02
22 | CGATTGGGTA | 0.968 ± 0.038
23 | CGATTTAAGG | 0.9947 ± 0.0063
24 | CGATTTGACT | 1.02 ± 0.037
25 | CGATTTTTTT | 1.02 ± 0.05

Row | Sequence | switch fluorescence ratio
26 | CGCAAAAGCA | 1.2 ± 0.027
27 | CGCAATGGGG | 2.98 ± 0.53
28 | CGCAATTCGA | 3.57 ± 1.3
29 | CGCACCTGAG | 1.23 ± 0.044
30 | CGCACCTGTA | 1.04 ± 0.037
31 | CGCAGAAACG | 1 ± 0.036
32 | CGCAGAGCGA | 1.02 ± 0.0082
33 | CGCAGCGGTT | 1.49 ± 0.041
34 | CGCATAGGAC | 3.16 ± 0.28
35 | CGCATAGGGT | 1.13 ± 0.012
36 | CGCATAGTTG | 1.06 ± 0.024
37 | CGCATGAGGC | 1.18 ± 0.045
38 | CGCATGCTGG | 1.02 ± 0.024
39 | CGCATGGGCC | 1.4 ± 0.019
40 | CGCATGTCGA | 1.03 ± 0.025
41 | CGCATGTTTC | 1.2 ± 0.15
42 | CGCATTGGT | 1.31 ± 0.016
43 | CGCATTTAAG | 1.18 ± 0.046
44 | CGCATTTTGT | 1.06 ± 0.0043
45 | CGCCAGATTT | 0.9963 ± 0.0072
46 | CGCCATAGTG | 1.01 ± 0.039
47 | CGCCATTACG | 1.65 ± 0.024
48 | CGCCCAAAGG | 1.13 ± 0.11
49 | CGCCCCGAGA | 1.02 ± 0.015
50 | CGCCCCGCTG | 1.13 ± 0.071

Row | Sequence | switch fluorescence ratio
51 | CGCCCCTGAA | 0.997 ± 0.017
52 | CGCCCGCACG | 1.93 ± 0.5
53 | CGCCGATTAA | 1.03 ± 0.062
54 | CGCCGCGTCA | 1 ± 0.038
55 | CGCCGGGAGG | 0.989 ± 0.073
56 | CGCCTAAGTT | 1 ± 0.036
57 | CGCCTAGTCG | 1.02 ± 0.074
58 | CGCCTCAGGT | 1.46 ± 0.14
59 | CGCCTCGGGC | 1.02 ± 0.016
60 | CGCCTGGGCA | 1.02 ± 0.043
61 | CGCGAAAATG | 1.02 ± 0.022
62 | CGCGACGGGG | 1.03 ± 0.029
63 | CGCGACTGGT | 0.994 ± 0.014
64 | CGCGACTTAA | 1.044 ± 0.0047
65 | CGCGACTTTC | 1.09 ± 0.021
66 | CGCGAGAGGA | 1.01 ± 0.016
67 | CGCGAGCGTT | 0.995 ± 0.049
68 | CGCGCCGTTG | 1 ± 0.011
69 | CGCGCCTGTG | 1.17 ± 0.23
70 | CGCGCGGGCT | 0.998 ± 0.051
71 | CGCGCGTCGG | 0.978 ± 0.021
72 | CGCGCTGCTG | 1.03 ± 0.029
73 | CGCGGAGCTT | 1.03 ± 0.033
74 | CGCGGGAAGG | 1.02 ± 0.036
75 | CGCGGGGAAG | 0.98 ± 0.053

Row | Sequence | switch fluorescence ratio
76 | CGCGGGGGAT | 1.03 ± 0.067
77 | CGCGGGGGCG | 0.991 ± 0.025
78 | CGCGGGGGTA | 0.995 ± 0.03
79 | CGCGGTGCGG | 1.005 ± 0.0076
80 | CGCGGTGTGG | 1.03 ± 0.022
81 | CGCGGTTGCG | 0.9668 ± 0.0054
82 | CGCGTAATAT | 2.07 ± 0.069
83 | CGCGTACGTT | 1.05 ± 0.018
84 | CGCGTAGGGC | 1.04 ± 0.016
85 | CGCGTGCAGG | 1.02 ± 0.033
86 | CGCGTGGTA | 1.07 ± 0.013
87 | CGCGTTCATT | 0.972 ± 0.038
88 | CGCGTTCGCT | 1.025 ± 0.0083
89 | CGCGTTTCCC | 1.27 ± 0.038
90 | CGCTAACTTG | 1.01 ± 0.047
91 | CGCTACGTGT | 1.02 ± 0.038
92 | CGCTACTTAT | 1.12 ± 0.029
93 | CGCTAGATTT | 0.996 ± 0.031
94 | CGCTATTGGT | 1.002 ± 0.0043
95 | CGCTATTGTG | 1.01 ± 0.021
96 | CGCTCCCATT | 1.46 ± 0.024
97 | CGCTCGCCTG | 1.03 ± 0.016
98 | CGCTCGGTTA | 0.956 ± 0.031
99 | CGCTCGTGCG | 1 ± 0.017
100 | CGCTGACGGA | 1.01 ± 0.053

Row | Sequence | switch fluorescence ratio
101 | CGCTGAGCTG | 1 ± 0.029
102 | CGCTGAGTTT | 0.993 ± 0.021
103 | CGCTGCTAAT | 1.58 ± 0.08
104 | CGCTGGCCGG | 0.972 ± 0.037
105 | CGCTGGGGGG | 1.02 ± 0.048
106 | CGCTGTGACT | 1.02 ± 0.031
107 | CGCTTAACGT | 1.05 ± 0.096
108 | CGCTTAATCT | 1.07 ± 0.018
109 | CGCTTAGGTT | 1.06 ± 0.061
110 | CGCTTATAGG | 1.03 ± 0.052
111 | CGCTTATGCA | 1.02 ± 0.02
112 | CGCTTGTCAC | 1.18 ± 0.021
113 | CGCTTGTGTT | 0.9821 ± 0.0015
114 | CGCTTTACTA | 2.21 ± 0.07
115 | CGCTTTAGTG | 1.01 ± 0.014
116 | CGCTTTAGTT | 0.986 ± 0.026
117 | CGCTTTTGGG | 0.999 ± 0.03
118 | CGGAAAAAGC | 0.985 ± 0.028
119 | CGGAAAATTA | 1.015 ± 0.0067
120 | CGGAAACATT | 1.04 ± 0.039
121 | CGGAAAGAAG | 0.989 ± 0.046
122 | CGGAAAGCAG | 1.02 ± 0.028
123 | CGGAAAGGGG | 0.978 ± 0.021
124 | CGGAACCGGG | 1.03 ± 0.024
125 | CGGAACGCTC | 1.71 ± 0.025

Row | Sequence | switch fluorescence ratio
126 | CGGAAGACGT | 1.02 ± 0.036
127 | CGGAAGGCAT | 1.04 ± 0.025
128 | CGGAATAATT | 1.04 ± 0.025
129 | CGGAATAGTG | 1.2 ± 0.039
130 | CGGAATTCAC | 1.39 ± 0.017
131 | CGGACCGATG | 1.01 ± 0.0094
132 | CGGACTCAAA | 1.12 ± 0.025
133 | CGGAGAAGGG | 0.974 ± 0.029
134 | CGGAGAGAGG | 1.01 ± 0.015
135 | CGGAGAGCTG | 1.04 ± 0.014
136 | CGGAGATAGT | 1.02 ± 0.028
137 | CGGAGCTACG | 1.49 ± 0.04
138 | CGGAGGAGC | 1.02 ± 0.016
139 | CGGAGGAGGG | 1.21 ± 0.3
140 | CGGAGGAGTA | 1.03 ± 0.03
141 | CGGAGGGGAG | 0.977 ± 0.011
142 | CGGAGTGTGT | 1.01 ± 0.016
143 | CGGATATAAG | 1.01 ± 0.013
144 | CGGATATTGT | 0.995 ± 0.028
145 | CGGATCGACA | 0.976 ± 0.025
146 | CGGATCGGTG | 0.991 ± 0.019
147 | CGGATCTGAG | 1.01 ± 0.078
148 | CGGATGAGGC | 1.08 ± 0.018
149 | CGGATGCGTT | 0.981 ± 0.024
150 | CGGATGGATC | 1.02 ± 0.041

Row | Sequence | switch fluorescence ratio
151 | CGGATGTGGT | 0.973 ± 0.016
152 | CGGATGTGTT | 0.951 ± 0.048
153 | CGGATGTTTT | 0.984 ± 0.02
154 | CGGATTTTCA | 0.9999 ± 0.0067
155 | CGGCACGTGG | 0.998 ± 0.021
156 | CGGCACGTTA | 1.06 ± 0.025
157 | CGGCAGAGGG | 1.02 ± 0.022
158 | CGGCAGCCGG | 1.01 ± 0.062
159 | CGGCAGGCGG | 1.05 ± 0.044
160 | CGGCAGGGGA | 1.05 ± 0.051
161 | CGGCAGTATC | 1.51 ± 0.12
162 | CGGCATTGGG | 1.02 ± 0.04
163 | CGGCCCAAGG | 1.22 ± 0.022
164 | CGGCCCGTAG | 1.02 ± 0.036
165 | CGGCCTTGCA | 1.026 ± 0.0095
166 | CGGCGTACTG | 1.03 ± 0.059
167 | CGGCGTGAGC | 0.993 ± 0.067
168 | CGGCGTGTAT | 1 ± 0.055
169 | CGGCTAGGGT | 0.998 ± 0.021
170 | CGGCTAGTCT | 0.993 ± 0.13
171 | CGGCTATGTT | 0.9712 ± 0.0027
172 | CGGCTCCTCA | 1.08 ± 0.045
173 | CGGCTGACTG | 1.05 ± 0.019
174 | CGGCTGGGCT | 0.988 ± 0.024
175 | CGGCTTAAGG | 1.01 ± 0.019

Row | Sequence | switch fluorescence ratio
176 | CGGCTTAATA | 1.02 ± 0.019
177 | CGGCTTGTTG | 1.01 ± 0.017
178 | CGGGAAAGTT | 1.02 ± 0.04
179 | CGGGAACTCT | 1.013 ± 0.0054
180 | CGGGAATAAA | 0.993 ± 0.016
181 | CGGGAATCGA | 1 ± 0.012
182 | CGGGACAGTG | 0.957 ± 0.024
183 | CGGGACGTGT | 0.969 ± 0.021
184 | CGGGAGAAAT | 1.24 ± 0.34
185 | CGGGAGAGGA | 0.988 ± 0.033
186 | CGGGAGAGGT | 0.988 ± 0.011
187 | CGGGAGCTGT | 1.01 ± 0.072
188 | CGGGAGGGGC | 1.02 ± 0.058
189 | CGGGAGGGGG | 1.06 ± 0.07
190 | CGGGAGGTGC | 1.02 ± 0.033
191 | CGGGAGTTCG | 0.992 ± 0.077
192 | CGGGATACGG | 1.19 ± 0.065
193 | CGGGATAGGC | 1.12 ± 0.02
194 | CGGGATATAT | 0.994 ± 0.028
195 | CGGGATCCAG | 1.01 ± 0.0094
196 | CGGGCAATTT | 1.38 ± 0.1
197 | CGGGCAGGTT | 1.11 ± 0.18
198 | CGGGCATATA | 1.1969 ± 8.5e-05
199 | CGGGCATCGA | 0.995 ± 0.061
200 | CGGGCATGCT | 1.04 ± 0.034
